The values that follow come from US20170355730A1.

For orientation: Kd means the constant that tells how readily two partners part at equilibrium. Low readings indicate higher affinity, high ones lower affinity. Broadly, the IC50 is the midpoint of a concentration-inhibition curve. A low value points to higher potency.

Starred links: 1 amine or outer side, 2 acyl side, 3 side chain; linkers in the order of their positions; H or OH if unused. Non-standard residues stand in square brackets, D forms with d. Primed or numbered codes have the meaning given here. No end group written: not given here. Trimesoyl = O=C(c1cc(C(=O)[*:2])cc(C(=O)[*:3])c1)[*:1]; Phe(3,4-F2) = N[C@@H](Cc1ccc(F)c(F)c1)C(=O)O; Phe(4-Br) = N[C@@H](Cc1ccc(Br)cc1)C(=O)O; Phe(4-Cl) = N[C@@H](Cc1ccc(Cl)cc1)C(=O)O; Phe(4-F) = N[C@@H](Cc1ccc(F)cc1)C(=O)O; dPhe(4-F) = N[C@H](Cc1ccc(F)cc1)C(=O)O; 2Nal = N[C@@H](Cc1ccc2ccccc2c1)C(=O)O; Pip′ = L-homoproline (pipecolyl); Dap = NC[C@H](N)C(=O)O; Sar = CNCC(=O)O

The chains are these.
B1: peptide 37 (Table 18) (peptide)
peptide: Trimesoyl-[dPhe(4-F)][Phe(4-F)][dT][Pip′][2Nal]RA[dF][Dap]F[2Nal]RRRR[Dap]K
modifications: linker (positions not given here) via Trimesoyl; not fully specified (bridges); printed as bicyclo[Tm-(D-4-Fpa-Fpa-D-Thr-Pip-Nal-Arg-Ala-D-Phe)-Dap-(Phe-Nal-Arg-Arg-Arg-Arg-Dap)]-Lys
B2: peptide 32 (Table 18) (peptide)
peptide: Trimesoyl-[dF][Phe(4-Br)][dT][Pip′][2Nal]RA[dF][Dap]F[2Nal]RRRR[Dap]K
modifications: linker (positions not given here) via Trimesoyl; not fully specified (C-terminus, bridges); printed as bicyclo[Tm-(D-Phe-4-BrPhe-D-Thr-Pip-Nal-Arg-Ala-D-Phe)-Dap-(Phe-Nal-Arg-Arg-Arg-Arg-Dap)]-Lys
B3: peptide 26 (Table 18) (peptide)
peptide: Trimesoyl-[dF][Phe(4-F)][dT][Pip′][2Nal]RG[dA][Dap]F[2Nal]RRRR[Dap]K-NH2
modifications: linker (positions not given here) via Trimesoyl; not fully specified (some residues, bridges); printed as bicyclo[Tm-(D-Phe-4-Fpa-D-Thr-Pip-Nal-Arg-Gly-D-Ala)-Dap-(Phe-Nal-Arg-Arg-Arg-Arg-Dap)]-Lys
B4: peptide 28 (Table 18) (peptide)
peptide: Trimesoyl-[dF]F[dT][Pip′][2Nal]RA[dF][Dap]F[2Nal]RRRR[Dap]K
modifications: linker (positions not given here) via Trimesoyl; not fully specified (some residues, C-terminus, bridges); printed as bicyclo[Tm-(D-Phe-Phe-D-Thr-Pip-Nal-Arg-Ala-D-Phe)-Dap-(Phe-Nal-Arg-Arg-Arg-Arg-Dap)]-Lys
B5: peptide 23 (Table 18) (peptide)
peptide: Trimesoyl-P[Sar][dD][Pip′][2Nal]RR[dV][Dap]F[2Nal]RRRR[Dap]K-NH2
modifications: linker (positions not given here) via Trimesoyl; not fully specified (some residues, bridges); printed as bicyclo[Tm-(Pro-Sar-D-Asp-Pip-Nal-Arg-Arg-D-Val)-Dap-(Phe-Nal-Arg-Arg-Arg-Arg-Dap)]-Lys
B6: peptide 34 (Table 18) (peptide)
peptide: Trimesoyl-[dV][Phe(4-F)][dT][Pip′][2Nal]RA[dA][Dap]F[2Nal]RRRR[Dap]K
modifications: linker (positions not given here) via Trimesoyl; not fully specified (C-terminus, bridges); printed as bicyclo[Tm-(D-Val-4-Fpa-D-Thr-Pip-Nal-Arg-Ala-D-Ala)-Dap-(Phe-Nal-Arg-Arg-Arg-Arg-Dap)]-Lys
B7: peptide 29 (Table 18) (peptide)
peptide: Trimesoyl-[dF][Phe(3,4-F2)][dT][Pip′][2Nal]RA[dF][Dap]F[2Nal]RRRR[Dap]K
modifications: linker (positions not given here) via Trimesoyl; not fully specified (C-terminus, bridges); printed as bicyclo[Tm-(D-Phe-3,4-diFPhe-D-Thr-Pip-Nal-Arg-Ala-D-Phe)-Dap-(Phe-Nal-Arg-Arg-Arg-Arg-Dap)]-Lys
B8: peptide 21 (Table 18) (peptide)
peptide: Trimesoyl-[dF][Phe(4-F)][dT][Pip′][2Nal]RS[dF][Dap]F[2Nal]RRRR[Dap]K-NH2
modifications: linker (positions not given here) via Trimesoyl; not fully specified (some residues, bridges); printed as bicyclo[Tm-(D-Phe-Fpa-D-Thr-Pip-Nal-Arg-Ser-D-Phe)-Dap-(Phe-Nal-Arg-Arg-Arg-Arg-Dap)]-Lys
B9: peptide 20 (Table 18) (peptide)
peptide: Trimesoyl-P[Sar][dD][Pip′][2Nal]RD[dA][Dap]F[2Nal]RRRR[Dap]K-NH2
modifications: linker (positions not given here) via Trimesoyl; not fully specified (some residues, bridges); printed as bicyclo[Tm-(Pro-Sar-D-Asp-Pip-Nal-Arg-Asp-D-Ala)-Dap-(Phe-Nal-Arg-Arg-Arg-Arg-Dap)]-Lys
B10: peptide 19 (Table 18) (peptide)
peptide: Trimesoyl-P[Sar][dD][Pip′][2Nal]RR[dA][Dap]F[2Nal]RRRR[Dap]K-NH2
modifications: linker (positions not given here) via Trimesoyl; not fully specified (some residues, bridges); printed as bicyclo[Tm-(Pro-Sar-D-Asp-Pip-Nal-Arg-Arg-D-Ala)-Dap-(Phe-Nal-Arg-Arg-Arg-Arg-Dap)]-Lys
B11: peptide 31 (Table 18) (peptide)
peptide: Trimesoyl-[dF]H[dT][Pip′][2Nal]RA[dF][Dap]F[2Nal]RRRR[Dap]K
modifications: linker (positions not given here) via Trimesoyl; not fully specified (C-terminus, bridges); printed as bicyclo[Tm-(D-Phe-His-D-Thr-Pip-Nal-Arg-Ala-D-Phe)-Dap-(Phe-Nal-Arg-Arg-Arg-Arg-Dap)]-Lys
B12: peptide 30 (Table 18) (peptide)
peptide: Trimesoyl-[dF][Phe(4-Cl)][dT][Pip′][2Nal]RA[dF][Dap]F[2Nal]RRRR[Dap]K
modifications: linker (positions not given here) via Trimesoyl; not fully specified (C-terminus, bridges); printed as bicyclo[Tm-(D-Phe-4-ClPhe-D-Thr-Pip-Nal-Arg-Ala-D-Phe)-Dap-(Phe-Nal-Arg-Arg-Arg-Arg-Dap)]-Lys
B13: peptide 24 (Table 18) (peptide)
peptide: Trimesoyl-P[Sar][dD][Pip′][2Nal]RR[dR][Dap]F[2Nal]RRRR[Dap]K-NH2
modifications: linker (positions not given here) via Trimesoyl; not fully specified (some residues, bridges); printed as bicyclo[Tm-(Pro-Sar-D-Asp-Pip-Nal-Arg-Arg-D-Arg)-Dap-(Phe-Nal-Arg-Arg-Arg-Arg-Dap)]-Lys
B14: peptide 18 (Table 18) (peptide)
peptide: Trimesoyl-P[Sar][dD][Pip′][2Nal]RV[dA][Dap]F[2Nal]RRRR[Dap]K-NH2
modifications: linker (positions not given here) via Trimesoyl; not fully specified (some residues, bridges); printed as bicyclo[Tm-(Pro-Sar-D-Asp-Pip-Nal-Arg-Val-D-Ala)-Dap-(Phe-Nal-Arg-Arg-Arg-Arg-Dap)]-Lys
B15: peptide 25 (Table 18) (peptide)
peptide: Trimesoyl-P[Sar][dD][Pip′][2Nal]RR[dD][Dap]F[2Nal]RRRR[Dap]K-NH2
modifications: linker (positions not given here) via Trimesoyl; not fully specified (some residues, bridges); printed as bicyclo[Tm-(Pro-Sar-D-Asp-Pip-Nal-Arg-Arg-D-Asp)-Dap-(Phe-Nal-Arg-Arg-Arg-Arg-Dap)]-Lys

Sequence of bovine serum albumin (bovine) (P02769 25-607 limits assumed): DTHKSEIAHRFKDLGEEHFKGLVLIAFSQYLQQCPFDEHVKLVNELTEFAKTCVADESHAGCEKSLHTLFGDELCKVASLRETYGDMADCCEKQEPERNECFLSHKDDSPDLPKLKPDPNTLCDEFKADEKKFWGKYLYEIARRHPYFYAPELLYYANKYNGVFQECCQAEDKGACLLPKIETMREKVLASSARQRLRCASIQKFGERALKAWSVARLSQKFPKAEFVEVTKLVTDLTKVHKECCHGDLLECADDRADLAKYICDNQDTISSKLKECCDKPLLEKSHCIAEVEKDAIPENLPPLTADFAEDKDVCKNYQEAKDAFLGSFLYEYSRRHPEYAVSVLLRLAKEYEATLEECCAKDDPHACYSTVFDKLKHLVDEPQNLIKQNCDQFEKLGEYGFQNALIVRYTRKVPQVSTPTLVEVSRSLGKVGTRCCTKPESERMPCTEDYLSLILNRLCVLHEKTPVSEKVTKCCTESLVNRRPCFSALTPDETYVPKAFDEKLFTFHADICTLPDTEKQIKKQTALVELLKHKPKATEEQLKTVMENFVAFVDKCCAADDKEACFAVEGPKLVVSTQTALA

The first assay deals with Pin1 (Example 6, construct not stated) (human) (UniProt Q13526). Put plainly: cell-based or functional assay.
In turn, B1 had an IC50 of HeLa cell growth (MTT assay) of 1000 nM; an IC50 of Pin1 catalytic activity toward Suc-Ala-Glu-Pro-Phe-pNA of 170 nM; a PML protein level in HeLa cells (western blot), 0.2 µM inhibitor of 1.8 fold; a PML protein level in HeLa cells (western blot), plateau at ˜1 µM inhibitor of 3.3 fold.

Another assay concerns the target bovine serum albumin (bovine) (UniProt P02769). Put plainly: binding test against a panel of arbitrarily selected proteins.
In turn, B1 gave a Kd of 20000 nM.

The next assay deals with Pin1 (Example 6, construct not stated) (human) (UniProt Q13526). As to the kind of experiment: fluorescence anisotropy. For orientation: Fluorescence polarisation rises when a labelled molecule tumbles more slowly, as on binding a larger partner.
In turn, B2 showed a Kd of 1780 nM.

The molecule B3 had a dissociation constant (Kd) of 740 nM. The same measure, in the same setting: then B4, with 1260 nM; and B1, with 120 nM; and B5, with 1920 nM. Still for that read-out and setting: then B6, with 1070 nM. The molecule B7 had a dissociation constant Kd of 410 nM.

The molecule B8 registered a Kd of 570 nM.

In turn, B9 registered a Kd of 3190 nM.

In the case of B10, the Kd turned out to be 720 nM. The molecule B11 showed a Kd of 1680 nM. Still for that read-out and setting: the figure for B12 is 780 nM; for B13 it is 1310 nM. On the same count and under the same terms, then B14, with 1750 nM. Molecule B15 yielded a Kd of 4600 nM.

The next assay shares this target. As to the kind of experiment: FA competition; competitor probe FITC-labeled peptide 1 (100 nM), Pin1 400 nM.
B1 gave a 50% inhibitory concentration (IC50) of 190 nM.
